Assay results published in the supplement of paper PMC7125110.
± gives the standard error. For some assays here: This sample holds only a part of the variants without activity.

B1: glmS ribozyme (parent)
chain: AUAAAAGCGCCAGAACUACAGAAAUGUAGUUGACGAGGAGGAGGUUUAUCGAAUUUUCGGCGGAUGCCUCCAAA

Key:
Conditions in all cases: with glucosamine-6-phosphate
glucosamine-6-phosphate [1] = variants of: B1; assay: kcat; higher = faster cleavage; RNA array
Summary of the method: (§1)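 Glucosamine-6-phosphate, from 40 μM to 10 mM in HEPES/KCl/Mg(OAc)2 buffer, was flowed over sequenced MiSeq chips carrying barcoded ribozyme variants transcribed in situ by E. coli RNA polymerase. A hybridised Cy3 probe tracked the variants at 37 °C as tiles were imaged over ~14 h. kobs, kcat and KM were obtained by fitting normalised per-tile medians to exponential decays and then applying weighted Michaelis–Menten fits across concentrations.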

glucosamine-6-phosphate [2] = variants of: B1; assay: KM; higher = weaker cofactor use; RNA array
Summary of the method: as §1

glucosamine-6-phosphate [3] = variants of: B1; assay: self-cleavage kobs at 640 uM GlcN6P; higher = faster cleavage; RNA array
Summary of the method: as §1

glucosamine-6-phosphate [4] = variants of: B1; assay: self-cleavage kobs at 2500 uM GlcN6P; higher = faster cleavage; RNA array
Summary of the method: as §1

glucosamine-6-phosphate [5] = variants of: B1; assay: self-cleavage kobs at 10000 uM GlcN6P; higher = faster cleavage; RNA array
Summary of the method: as §1

glucosamine-6-phosphate [6] = variants of: B1; assay: self-cleavage kobs at 160 uM GlcN6P; higher = faster cleavage; RNA array
Summary of the method: as §1

glucosamine-6-phosphate [7] = variants of: B1; assay: self-cleavage kobs at 40 uM GlcN6P; higher = faster cleavage; RNA array
Summary of the method: as §1

## A14G A33C
glucosamine-6-phosphate [1]
  kcat: 0.000125 ± 5.4e-06 s⁻¹
glucosamine-6-phosphate [2]
  KM: 1470 ± 220 µM
glucosamine-6-phosphate [3]
  self-cleavage kobs at 640 uM GlcN6P: 3.41e-05 ± 1.4e-05 s⁻¹
glucosamine-6-phosphate [4]
  self-cleavage kobs at 2500 uM GlcN6P: 8.25e-05 ± 1.2e-05 s⁻¹
glucosamine-6-phosphate [5]
  self-cleavage kobs at 10000 uM GlcN6P: 0.000108 ± 1.2e-05 s⁻¹

## U31G G32C
glucosamine-6-phosphate [1]
  kcat: 0.000616 ± 8.5e-05 s⁻¹
glucosamine-6-phosphate [2]
  KM: 5520 ± 1100 µM
glucosamine-6-phosphate [3]
  self-cleavage kobs at 640 uM GlcN6P: 6.65e-05 ± 1.1e-05 s⁻¹
glucosamine-6-phosphate [4]
  self-cleavage kobs at 2500 uM GlcN6P: 0.000186 ± 2.9e-05 s⁻¹
glucosamine-6-phosphate [5]
  self-cleavage kobs at 10000 uM GlcN6P: 0.000405 ± 8.2e-05 s⁻¹

## A12C C50U
glucosamine-6-phosphate [1]
  kcat: 0.000203 ± 3.3e-05 s⁻¹
glucosamine-6-phosphate [2]
  KM: 4750 ± 1100 µM
glucosamine-6-phosphate [4]
  self-cleavage kobs at 2500 uM GlcN6P: 7.01e-05 ± 1.5e-05 s⁻¹

## A14U U47C
glucosamine-6-phosphate [1]
  kcat: 0.000442 ± 6.2e-05 s⁻¹
glucosamine-6-phosphate [2]
  KM: 1430 ± 360 µM
glucosamine-6-phosphate [6]
  self-cleavage kobs at 160 uM GlcN6P: 4.9e-05 ± 8.6e-06 s⁻¹
glucosamine-6-phosphate [3]
  self-cleavage kobs at 640 uM GlcN6P: 0.000138 ± 1.3e-05 s⁻¹
glucosamine-6-phosphate [4]
  self-cleavage kobs at 2500 uM GlcN6P: 0.000238 ± 3.2e-05 s⁻¹
glucosamine-6-phosphate [5]
  self-cleavage kobs at 10000 uM GlcN6P: 0.000442 ± 5.2e-05 s⁻¹

## G9U A33U
glucosamine-6-phosphate [1]
  kcat: < 1e-05 s⁻¹
glucosamine-6-phosphate [6]
  self-cleavage kobs at 160 uM GlcN6P: < 1e-05 s⁻¹
glucosamine-6-phosphate [3]
  self-cleavage kobs at 640 uM GlcN6P: < 1e-05 s⁻¹
glucosamine-6-phosphate [5]
  self-cleavage kobs at 10000 uM GlcN6P: < 1e-05 s⁻¹

## A39C A64C
glucosamine-6-phosphate [1]
  kcat: 4.47e-05 ± 2.7e-06 s⁻¹
glucosamine-6-phosphate [6]
  self-cleavage kobs at 160 uM GlcN6P: < 1e-05 s⁻¹
glucosamine-6-phosphate [4]
  self-cleavage kobs at 2500 uM GlcN6P: 4.35e-05 ± 1.6e-05 s⁻¹
glucosamine-6-phosphate [5]
  self-cleavage kobs at 10000 uM GlcN6P: 4.27e-05 ± 1.3e-05 s⁻¹

## A36U C50A
glucosamine-6-phosphate [1]
  kcat: < 1e-05 s⁻¹
glucosamine-6-phosphate [6]
  self-cleavage kobs at 160 uM GlcN6P: < 1e-05 s⁻¹

## A52U U55G
glucosamine-6-phosphate [1]
  kcat: 0.000246 ± 4.9e-05 s⁻¹
glucosamine-6-phosphate [2]
  KM: 2150 ± 980 µM
glucosamine-6-phosphate [3]
  self-cleavage kobs at 640 uM GlcN6P: 7.12e-05 ± 1.2e-05 s⁻¹
glucosamine-6-phosphate [4]
  self-cleavage kobs at 2500 uM GlcN6P: 0.000109 ± 1.5e-05 s⁻¹
glucosamine-6-phosphate [5]
  self-cleavage kobs at 10000 uM GlcN6P: 0.000221 ± 2.4e-05 s⁻¹

## A33U C67A
glucosamine-6-phosphate [1]
  kcat: 7.68e-05 ± 3.3e-06 s⁻¹
glucosamine-6-phosphate [2]
  KM: 4870 ± 530 µM
glucosamine-6-phosphate [4]
  self-cleavage kobs at 2500 uM GlcN6P: 2.58e-05 ± 7.7e-06 s⁻¹
glucosamine-6-phosphate [5]
  self-cleavage kobs at 10000 uM GlcN6P: 5.17e-05 ± 6e-06 s⁻¹

## A12G C67G C68A
glucosamine-6-phosphate [1]
  kcat: 6.18e-05 ± 2.3e-05 s⁻¹
glucosamine-6-phosphate [6]
  self-cleavage kobs at 160 uM GlcN6P: 6.68e-05 ± 1.8e-05 s⁻¹
glucosamine-6-phosphate [3]
  self-cleavage kobs at 640 uM GlcN6P: 0.000113 ± 2.6e-05 s⁻¹
glucosamine-6-phosphate [4]
  self-cleavage kobs at 2500 uM GlcN6P: 6.87e-05 ± 1.8e-05 s⁻¹

## U47G A53G
glucosamine-6-phosphate [1]
  kcat: 0.00632 ± 0.0012 s⁻¹
glucosamine-6-phosphate [2]
  KM: 804 ± 250 µM
glucosamine-6-phosphate [7]
  self-cleavage kobs at 40 uM GlcN6P: 0.000319 ± 4.7e-05 s⁻¹
glucosamine-6-phosphate [6]
  self-cleavage kobs at 160 uM GlcN6P: 0.000975 ± 0.00019 s⁻¹
glucosamine-6-phosphate [3]
  self-cleavage kobs at 640 uM GlcN6P: 0.00317 ± 0.00055 s⁻¹
glucosamine-6-phosphate [4]
  self-cleavage kobs at 2500 uM GlcN6P: 0.00362 ± 0.00064 s⁻¹
glucosamine-6-phosphate [5]
  self-cleavage kobs at 10000 uM GlcN6P: 0.0074 ± 0.00097 s⁻¹

## U30C C67U
glucosamine-6-phosphate [1]
  kcat: 0.0001 ± 1.3e-05 s⁻¹
glucosamine-6-phosphate [2]
  KM: 927 ± 390 µM
glucosamine-6-phosphate [6]
  self-cleavage kobs at 160 uM GlcN6P: 3.33e-05 ± 1.3e-05 s⁻¹
glucosamine-6-phosphate [3]
  self-cleavage kobs at 640 uM GlcN6P: 3.56e-05 ± 7.9e-06 s⁻¹
glucosamine-6-phosphate [4]
  self-cleavage kobs at 2500 uM GlcN6P: 8.48e-05 ± 1.8e-05 s⁻¹
glucosamine-6-phosphate [5]
  self-cleavage kobs at 10000 uM GlcN6P: 9.05e-05 ± 1e-05 s⁻¹

## U56G U69C C70A
glucosamine-6-phosphate [1]
  kcat: 6.04e-05 ± 1.7e-05 s⁻¹
glucosamine-6-phosphate [6]
  self-cleavage kobs at 160 uM GlcN6P: 4.37e-05 ± 1.6e-05 s⁻¹
glucosamine-6-phosphate [3]
  self-cleavage kobs at 640 uM GlcN6P: 8.99e-05 ± 2.7e-05 s⁻¹
glucosamine-6-phosphate [4]
  self-cleavage kobs at 2500 uM GlcN6P: 6.56e-05 ± 1.5e-05 s⁻¹

## G29A U56C
glucosamine-6-phosphate [1]
  kcat: 0.000719 ± 0.00026 s⁻¹
glucosamine-6-phosphate [6]
  self-cleavage kobs at 160 uM GlcN6P: 3.68e-05 ± 1.1e-05 s⁻¹
glucosamine-6-phosphate [3]
  self-cleavage kobs at 640 uM GlcN6P: 0.000156 ± 2.2e-05 s⁻¹
glucosamine-6-phosphate [4]
  self-cleavage kobs at 2500 uM GlcN6P: 0.000226 ± 3.3e-05 s⁻¹
glucosamine-6-phosphate [5]
  self-cleavage kobs at 10000 uM GlcN6P: 0.000619 ± 6.7e-05 s⁻¹

## C50A C61G C68G
glucosamine-6-phosphate [1]
  kcat: 3.41e-05 ± 1.4e-05 s⁻¹
glucosamine-6-phosphate [3]
  self-cleavage kobs at 640 uM GlcN6P: 6.76e-05 ± 1.9e-05 s⁻¹
glucosamine-6-phosphate [5]
  self-cleavage kobs at 10000 uM GlcN6P: 2.92e-05 ± 1.3e-05 s⁻¹

## U31A G44A
glucosamine-6-phosphate [1]
  kcat: 0.00023 ± 5.7e-05 s⁻¹
glucosamine-6-phosphate [2]
  KM: 4780 ± 2400 µM
glucosamine-6-phosphate [4]
  self-cleavage kobs at 2500 uM GlcN6P: 9.2e-05 ± 1.5e-05 s⁻¹
glucosamine-6-phosphate [5]
  self-cleavage kobs at 10000 uM GlcN6P: 0.000151 ± 2.1e-05 s⁻¹
